From patent publication US7657380
Where a chain is given by its changes, count along the chain named.

B1: AC10 H1/L3 full length antibody (antibody, V domains shown)
VH: QIQLVQSGPEVKKPGASVKVSCKASGYTFTDYYITWVRQAPGQGLEWMGWIYPGSGNTKYNEKFQGRVTITVDTSASTAYMELSSLRSEDTAVYFCANYGNYWFAYWGQGTLVTVSS
VL: DIVLTQSPDSLAVSLGERATINCKASQSVDFDGDSYMNWYQQKPGQPPKVLIYAASNLESGIPARFSGSGSGTDFTLTINSLEAEDAATYYCQQSNEDPWTFGGGTKVEIK
B2: AC10 H3/L3.28 (antibody, IgG1, name in Kabat numbering, V domains shown)
VH: B1 VH with V68F, T69V, I70F, T71S, M81L, E82Q, L83I, R87K, S88A
VL: B1 VL with N38D
B3: AC10 H3/L3.39 (antibody, IgG1, name in Kabat numbering, V domains shown)
VH: B1 VH with V68F, T69V, I70F, T71S, M81L, E82Q, L83I, R87K, S88A
VL: B1 VL with E59A
B4: AC10 H3/L3.20 (antibody, IgG1, name in Kabat numbering, V domains shown)
VH: B1 VH with V68F, T69V, I70F, T71S, M81L, E82Q, L83I, R87K, S88A
VL: B1 VL with D34Y
B5: AC10 H3/L3.23 (antibody, IgG1, name in Kabat numbering, V domains shown)
VH: B1 VH with V68F, T69V, I70F, T71S, M81L, E82Q, L83I, R87K, S88A
VL: B1 VL with S35N
B6: AC10 H3/L3.55 (antibody, IgG1, name in Kabat numbering, V domains shown)
VH: B1 VH with V68F, T69V, I70F, T71S, M81L, E82Q, L83I, R87K, S88A
VL: B1 VL with E97K
B7: AC10 H3/L3.21 (antibody, IgG1, name in Kabat numbering, V domains shown)
VH: B1 VH with V68F, T69V, I70F, T71S, M81L, E82Q, L83I, R87K, S88A
VL: B1 VL with S35D
B8: AC10 H3/L3.38 (antibody, IgG1, name in Kabat numbering, V domains shown)
VH: B1 VH with V68F, T69V, I70F, T71S, M81L, E82Q, L83I, R87K, S88A
VL: B1 VL with L58R
B9: AC10 H3/L3.33 (antibody, IgG1, name in Kabat numbering, V domains shown)
VH: B1 VH with V68F, T69V, I70F, T71S, M81L, E82Q, L83I, R87K, S88A
VL: B1 VL with A54D
B10: AC10 H3/L3.30 (antibody, IgG1, name in Kabat numbering, V domains shown)
VH: B1 VH with V68F, T69V, I70F, T71S, M81L, E82Q, L83I, R87K, S88A
VL: B1 VL with V50L
B11: AC10 H3/L3.50 (antibody, IgG1, name in Kabat numbering, V domains shown)
VH: B1 VH with V68F, T69V, I70F, T71S, M81L, E82Q, L83I, R87K, S88A
VL: B1 VL with S95L
B12: AC10 H3/L3.27 (antibody, IgG1, name in Kabat numbering, V domains shown)
VH: B1 VH with V68F, T69V, I70F, T71S, M81L, E82Q, L83I, R87K, S88A
VL: B1 VL with N38A
B13: AC10 H3/L3.51 (antibody, IgG1, name in Kabat numbering, V domains shown)
VH: B1 VH with V68F, T69V, I70F, T71S, M81L, E82Q, L83I, R87K, S88A
VL: B1 VL with S95Y
B14: AC10 H3/L3.18 (antibody, IgG1, name in Kabat numbering, V domains shown)
VH: B1 VH with V68F, T69V, I70F, T71S, M81L, E82Q, L83I, R87K, S88A
VL: B1 VL with D34N
B15: AC10 H3/L3.15 (antibody, IgG1, name in Kabat numbering, V domains shown)
VH: B1 VH with V68F, T69V, I70F, T71S, M81L, E82Q, L83I, R87K, S88A
VL: B1 VL with F31Y
B16: AC10 H3/L3.43 (antibody, IgG1, name in Kabat numbering, V domains shown)
VH: B1 VH with V68F, T69V, I70F, T71S, M81L, E82Q, L83I, R87K, S88A
VL: B1 VL with A64D
B17: AC10 H3/L3.64 (antibody, IgG1, name in Kabat numbering, V domains shown)
VH: B1 VH with V68F, T69V, I70F, T71S, M81L, E82Q, L83I, R87K, S88A
VL: B1 VL with D98T
B18: AC10 H3/L3.54 (antibody, IgG1, name in Kabat numbering, V domains shown)
VH: B1 VH with V68F, T69V, I70F, T71S, M81L, E82Q, L83I, R87K, S88A
VL: B1 VL with N96Y
B19: AC10 H3/L3.48 (antibody, IgG1, name in Kabat numbering, V domains shown)
VH: B1 VH with V68F, T69V, I70F, T71S, M81L, E82Q, L83I, R87K, S88A
VL: B1 VL with S95G
B20: AC10 H3/L3.63 (antibody, IgG1, name in Kabat numbering, V domains shown)
VH: B1 VH with V68F, T69V, I70F, T71S, M81L, E82Q, L83I, R87K, S88A
VL: B1 VL with D98S
B21: AC10 H3/L3.42 (antibody, IgG1, name in Kabat numbering, V domains shown)
VH: B1 VH with V68F, T69V, I70F, T71S, M81L, E82Q, L83I, R87K, S88A
VL: B1 VL with I62V
B22: AC10 H3/L3.56 (antibody, IgG1, name in Kabat numbering, V domains shown)
VH: B1 VH with V68F, T69V, I70F, T71S, M81L, E82Q, L83I, R87K, S88A
VL: B1 VL with E97N
B23: AC10 H3/L3.25 (antibody, IgG1, name in Kabat numbering, V domains shown)
VH: B1 VH with V68F, T69V, I70F, T71S, M81L, E82Q, L83I, R87K, S88A
VL: B1 VL with M37L
B24: AC10 H3/L3.40 (antibody, IgG1, name in Kabat numbering, V domains shown)
VH: B1 VH with V68F, T69V, I70F, T71S, M81L, E82Q, L83I, R87K, S88A
VL: B1 VL with E59Q
B25: AC10 H3/L3.17 (antibody, IgG1, name in Kabat numbering, V domains shown)
VH: B1 VH with V68F, T69V, I70F, T71S, M81L, E82Q, L83I, R87K, S88A
VL: B1 VL with D34K
B26: AC10 H3/L3.22 (antibody, IgG1, name in Kabat numbering, V domains shown)
VH: B1 VH with V68F, T69V, I70F, T71S, M81L, E82Q, L83I, R87K, S88A
VL: B1 VL with S35T
B27: AC10 H3/L3.60 (antibody, IgG1, name in Kabat numbering, V domains shown)
VH: B1 VH with V68F, T69V, I70F, T71S, M81L, E82Q, L83I, R87K, S88A
VL: B1 VL with D98F
B28: AC10 H3/L3.65 (antibody, IgG1, name in Kabat numbering, V domains shown)
VH: B1 VH with V68F, T69V, I70F, T71S, M81L, E82Q, L83I, R87K, S88A
VL: B1 VL with W100F
B29: AC10 H3/L3.62 (antibody, IgG1, name in Kabat numbering, V domains shown)
VH: B1 VH with V68F, T69V, I70F, T71S, M81L, E82Q, L83I, R87K, S88A
VL: B1 VL with D98L
B30: AC10 H3/L3.19 (antibody, IgG1, name in Kabat numbering, V domains shown)
VH: B1 VH with V68F, T69V, I70F, T71S, M81L, E82Q, L83I, R87K, S88A
VL: B1 VL with D34S
B31: AC10 H3/L3.49 (antibody, IgG1, name in Kabat numbering, V domains shown)
VH: B1 VH with V68F, T69V, I70F, T71S, M81L, E82Q, L83I, R87K, S88A
VL: B1 VL with S95H
B32: AC10 H3/L3.13 (antibody, IgG1, name in Kabat numbering, V domains shown)
VH: B1 VH with V68F, T69V, I70F, T71S, M81L, E82Q, L83I, R87K, S88A
VL: B1 VL with F31D
B33: AC10 H3/L3.58 (antibody, IgG1, name in Kabat numbering, V domains shown)
VH: B1 VH with V68F, T69V, I70F, T71S, M81L, E82Q, L83I, R87K, S88A
VL: B1 VL with E97S
B34: AC10 H3/L3.41 (antibody, IgG1, name in Kabat numbering, V domains shown)
VH: B1 VH with V68F, T69V, I70F, T71S, M81L, E82Q, L83I, R87K, S88A
VL: B1 VL with S60T
B35: AC10 H3/L3.16 (antibody, IgG1, name in Kabat numbering, V domains shown)
VH: B1 VH with V68F, T69V, I70F, T71S, M81L, E82Q, L83I, R87K, S88A
VL: B1 VL with D32N
B36: AC10 H3/L3.53 (antibody, IgG1, name in Kabat numbering, V domains shown)
VH: B1 VH with V68F, T69V, I70F, T71S, M81L, E82Q, L83I, R87K, S88A
VL: B1 VL with N96S
B37: AC10 H3/L3.44 (antibody, IgG1, name in Kabat numbering, V domains shown)
VH: B1 VH with V68F, T69V, I70F, T71S, M81L, E82Q, L83I, R87K, S88A
VL: B1 VL with A64S
B38: AC10 H3/L3.24 (antibody, IgG1, name in Kabat numbering, V domains shown)
VH: B1 VH with V68F, T69V, I70F, T71S, M81L, E82Q, L83I, R87K, S88A
VL: B1 VL with Y36D
B39: AC10 H3/L3.37 (antibody, IgG1, name in Kabat numbering, V domains shown)
VH: B1 VH with V68F, T69V, I70F, T71S, M81L, E82Q, L83I, R87K, S88A
VL: B1 VL with N57T
B40: AC10 H3/L3.66 (antibody, IgG1, name in Kabat numbering, V domains shown)
VH: B1 VH with V68F, T69V, I70F, T71S, M81L, E82Q, L83I, R87K, S88A
VL: B1 VL with W100I
B41: AC10 H3/L3.34 (antibody, IgG1, name in Kabat numbering, V domains shown)
VH: B1 VH with V68F, T69V, I70F, T71S, M81L, E82Q, L83I, R87K, S88A
VL: B1 VL with A54S
B42: AC10 H3/L3.32 (antibody, IgG1, name in Kabat numbering, V domains shown)
VH: B1 VH with V68F, T69V, I70F, T71S, M81L, E82Q, L83I, R87K, S88A
VL: B1 VL with V50S

Target: T1, CD30 fused to the Fc region of IgG1 (R&D Systems) (UniProt P28908 19-379)
T1 sequence (looked up): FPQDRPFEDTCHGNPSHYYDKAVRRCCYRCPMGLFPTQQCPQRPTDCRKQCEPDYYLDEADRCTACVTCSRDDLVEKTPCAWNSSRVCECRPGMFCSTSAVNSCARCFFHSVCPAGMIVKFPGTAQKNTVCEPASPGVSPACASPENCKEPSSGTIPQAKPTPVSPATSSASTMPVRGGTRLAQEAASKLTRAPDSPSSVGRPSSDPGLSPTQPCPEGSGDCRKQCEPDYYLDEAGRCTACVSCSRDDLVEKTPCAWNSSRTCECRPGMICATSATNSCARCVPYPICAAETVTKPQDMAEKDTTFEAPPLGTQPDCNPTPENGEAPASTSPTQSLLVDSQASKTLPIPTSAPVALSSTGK
Assay: SPR, CD30-Fc on Protein A chip

| Binder | Fold KD vs WT [fold] | Kd [nM] |
| --- | --- | --- |
| B1 | 0.67 | 5.09 |

Target: T2, human CD30 (commercial, conjugated to digoxigenin) (human, UniProt P28908 19-379, limits assumed, conjugated to digoxigenin (DIG))
T2 sequence (looked up): T1 sequence (looked up)
Assay: AlphaScreen competition

| Binder | Fold IC50 vs H3/L3 [fold] |
| --- | --- |
| B2 | 0.41 |
| B3 | 0.85 |
| B4 | 0.78 |
| B5 | 0.71 |
| B6 | 0.27 |
| B7 | 0.81 |
| B8 | 1.46 |
| B9 | 0.26 |
| B10 | 0.39 |
| B11 | 0.02 |
| B12 | 0.38 |
| B13 | 0.02 |
| B14 | 1.45 |
| B15 | 0.63 |
| B16 | 1.16 |
| B17 | 0.14 |
| B18 | 0.96 |
| B19 | 0.29 |
| B20 | 0.57 |
| B21 | 1.55 |
| B22 | 0.64 |

| Binder | Fold IC50 vs H3/L3 [fold] |
| --- | --- |
| B23 | 1.36 |
| B24 | 0.87 |
| B25 | 1.21 |
| B26 | 0.46 |
| B27 | 0.02 |
| B28 | 0.34 |
| B29 | 0.46 |
| B30 | 1.13 |
| B31 | 0.01 |
| B32 | 0.32 |
| B33 | 0.49 |
| B34 | 1.8 |
| B35 | 1.61 |
| B36 | 0.48 |
| B37 | 1.08 |
| B38 | 0.46 |
| B39 | 1.26 |
| B40 | 0 |
| B41 | 0.47 |
| B42 | 0.32 |

Target: T2, human CD30 (commercial, conjugated to …)
Assay: AlphaScreen competition vs biotin-WT AC10

| Binder | Fold IC50 vs WT [fold] | IC50 [nM] |
| --- | --- | --- |
| B1 | 0.18 | 17.4 |
